# B1: UL16-binding protein 6 (Homo sapiens), Q5VY80 (parent)
# chain: MAAAAIPALLLCLPLLFLLFGWSRARRDDPHSLCYDITVIPKFRPGPRWCAVQGQVDEKTFLHYDCGNKTVTPVSPLGKKLNVTMAWKAQNPVLREVVDILTEQLLDIQLENYTPKEPLTLQARMSCEQKAEGHSSGSWQFSIDGQTFLLFDSEKRMWTTVHPGARKMKEKWENDKDVAMSFHYISMGDCIGWLEDFLMGMDSTLEPSAGAPLAMSSGTTQLRATATTLILCCLLIILPCFILPGI
# Variants of: B1
# Conditions: with nkg2d_human KLRK1, P26718
# Sequence of nkg2d_human KLRK1, P26718 (P26718 whole entry): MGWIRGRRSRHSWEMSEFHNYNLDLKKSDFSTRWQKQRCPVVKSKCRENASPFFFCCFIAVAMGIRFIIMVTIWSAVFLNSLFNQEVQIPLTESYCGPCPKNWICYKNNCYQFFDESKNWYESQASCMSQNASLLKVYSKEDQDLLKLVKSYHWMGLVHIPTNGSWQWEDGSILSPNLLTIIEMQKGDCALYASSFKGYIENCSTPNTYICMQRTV
row,effect of a mutation on the interaction,Variant
1,decreasing interaction strength,MAAAAIPALLLCLPLLFLLFGWSRARRDDPHSLCYDITVIPKFRPGPRWCAVQGQVDEKTFLHYDCGNKTVTPVSPLGKKLNVTMAWKAQNPVLREVVDILTEQLRDIQLENYTPKEPLTLQARMSCEQKAEGHSSGSWQFSIDGQTFLLFDSEKRMWTTVHPGARKMKEKWENDKDVAMSFHYISMGDCIGWLEDFLMGMDSTLEPSAGAPLAMSSGTTQLRATATTLILCCLLIILPCFILPGI [L106R]
